Reference: publication PMC10154249, “Unique progerin C-terminal peptide ameliorates Hutchinson–Gilford progeria syndrome phenotype by rescuing BUBR1” (Nature Aging, 2023)

Target: T1, Flag-BUBR1 (human, UniProt O60566 1-1050)
T1 construct: also called Flag beads-BUBR1; source: eluted with 3×Flag peptide for MST, left on Flag beads for the pull-down
Experiment: pull-down; 10 μg purified His-UPCP incubated with Flag beads, Flag beads-BUBR1 or Flag beads-PTBP1 for 16 h at 4 °C; beads washed three times with PBS
Settings: both partners purified

T1 sequence (O60566 whole entry): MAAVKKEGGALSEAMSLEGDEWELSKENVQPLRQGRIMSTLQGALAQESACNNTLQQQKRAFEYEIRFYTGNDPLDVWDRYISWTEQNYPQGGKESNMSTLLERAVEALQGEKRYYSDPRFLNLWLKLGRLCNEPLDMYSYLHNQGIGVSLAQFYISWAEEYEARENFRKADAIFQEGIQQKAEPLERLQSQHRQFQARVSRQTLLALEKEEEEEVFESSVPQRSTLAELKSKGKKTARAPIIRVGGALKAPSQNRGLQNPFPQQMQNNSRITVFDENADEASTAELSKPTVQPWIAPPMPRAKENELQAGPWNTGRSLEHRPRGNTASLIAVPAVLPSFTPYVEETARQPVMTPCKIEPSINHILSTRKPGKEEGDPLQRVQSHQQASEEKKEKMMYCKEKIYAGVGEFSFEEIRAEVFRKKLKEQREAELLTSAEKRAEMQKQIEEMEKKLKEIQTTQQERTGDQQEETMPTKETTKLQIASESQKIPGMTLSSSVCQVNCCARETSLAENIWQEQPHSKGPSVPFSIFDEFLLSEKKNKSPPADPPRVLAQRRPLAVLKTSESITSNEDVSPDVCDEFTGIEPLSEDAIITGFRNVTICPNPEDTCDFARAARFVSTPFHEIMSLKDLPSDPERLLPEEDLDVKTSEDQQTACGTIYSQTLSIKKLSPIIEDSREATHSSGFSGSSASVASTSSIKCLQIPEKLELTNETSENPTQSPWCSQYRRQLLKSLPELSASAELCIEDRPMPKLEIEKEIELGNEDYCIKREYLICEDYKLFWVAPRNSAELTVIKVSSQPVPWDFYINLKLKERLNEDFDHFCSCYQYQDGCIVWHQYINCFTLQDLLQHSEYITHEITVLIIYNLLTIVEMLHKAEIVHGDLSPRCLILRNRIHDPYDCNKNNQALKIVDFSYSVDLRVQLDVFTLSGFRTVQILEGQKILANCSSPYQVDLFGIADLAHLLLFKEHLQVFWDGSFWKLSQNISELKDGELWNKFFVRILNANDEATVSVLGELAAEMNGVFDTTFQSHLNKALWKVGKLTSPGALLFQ

Question: Does YGRKKRRQRRRYNLRSRTVLCGTCGQPADKASASGSGAQSPQNCSIM (also called His-tagged UPCP) [His-UPCP] bind?
Answer: Result: binds
